Assay results reported in patent EP4467153A1, “CONSTRAINED PEPTIDE INHIBITORS OF LRRK2-FADD INTERACTIONS” (University of Georgia Research Foundation, Inc., priority 2023, dated 2024).
Entries after “also recorded” stand apart in the source; their conditions may differ. Positions of bridges follow the written chain, without caps; N, C: chain ends. Non-standard residues stand in square brackets, D forms with d. Primed or numbered codes have the meaning given here. FAM = 5(6)-carboxyfluorescein label; S5 = C=CCCC[C@](C)(N)C(=O)O; PEG3′ = PEG3 spacer

Columns and labels:
HEK293T cells = experiment: Cellular uptake of FAM-labeled peptides in HEK293T cells (fluorescence imaging); assay type: cell-based
Description: • FIGs. 1A-1D depict the design and structure of constrained peptides targeting the LRRK2-FADD PPI. (FIG. 1A) Structural representation of the region of the LRRK2 ARM domain in which the FADD-binding motif is located, shown with the fragment of the FADD death domain that binds LRRK2. (FIG. 1B) Highlight schematic of the relevant binding domains within LRRK2 and FADD, and the corresponding amino acid sequence that mediates this PPI is highlighted. (FIG. 1C) Schematic representation of the solid phase peptide synthesis, highlighting the placement of the synthetic amino acids for the placement of the peptide staple. (FIG. 1D) Sequences of the five stapled peptides synthesized, with the position of the synthetic residues in each peptide indicated by an asterisk. • FIGs. 2A-2B depict the cellular uptake of stapled vs. native peptides. (FIG. 2A) HEK293T cells were incubated with 5 µM of non-stapled control or constrained FARMS for a period of 24 hr. […] In the eluate, a dose-dependent reduction of FADD was detected with increasing concentrations of FARMS. […] (FIG. 4B) The percentage of transfected neurons with apoptotic nuclear features was determined in a blinded fashion. […] (FIG. 5B) The band intensities in FIG. 5A were quantified using Image J (n=2). […] (FIG. 5C) Phosphorylation of endogenous RablO in HEK293T cells by over-expressed WT or R1441C-LRRK2 was determined by Western blot, as in FIG. 5A. […]

G2019S-LRRK2 = target: T1, G2019S-LRRK2 (Homo sapiens, UniProt Q5S007, G2019S); experiment: LRRK2 kinase function in HEK293T cells co-transfected with G2019S-LRRK2 and Flag-Rab10 (western blot); assay type: cell-based; conditions: G2019S-LRRK2 + Rab10, peptide at indicated concentrations, 24hr
T1 construct: expressed in transfected cells; host or cells: HEK293T
T1 sequence (Q5S007 whole entry G2019S): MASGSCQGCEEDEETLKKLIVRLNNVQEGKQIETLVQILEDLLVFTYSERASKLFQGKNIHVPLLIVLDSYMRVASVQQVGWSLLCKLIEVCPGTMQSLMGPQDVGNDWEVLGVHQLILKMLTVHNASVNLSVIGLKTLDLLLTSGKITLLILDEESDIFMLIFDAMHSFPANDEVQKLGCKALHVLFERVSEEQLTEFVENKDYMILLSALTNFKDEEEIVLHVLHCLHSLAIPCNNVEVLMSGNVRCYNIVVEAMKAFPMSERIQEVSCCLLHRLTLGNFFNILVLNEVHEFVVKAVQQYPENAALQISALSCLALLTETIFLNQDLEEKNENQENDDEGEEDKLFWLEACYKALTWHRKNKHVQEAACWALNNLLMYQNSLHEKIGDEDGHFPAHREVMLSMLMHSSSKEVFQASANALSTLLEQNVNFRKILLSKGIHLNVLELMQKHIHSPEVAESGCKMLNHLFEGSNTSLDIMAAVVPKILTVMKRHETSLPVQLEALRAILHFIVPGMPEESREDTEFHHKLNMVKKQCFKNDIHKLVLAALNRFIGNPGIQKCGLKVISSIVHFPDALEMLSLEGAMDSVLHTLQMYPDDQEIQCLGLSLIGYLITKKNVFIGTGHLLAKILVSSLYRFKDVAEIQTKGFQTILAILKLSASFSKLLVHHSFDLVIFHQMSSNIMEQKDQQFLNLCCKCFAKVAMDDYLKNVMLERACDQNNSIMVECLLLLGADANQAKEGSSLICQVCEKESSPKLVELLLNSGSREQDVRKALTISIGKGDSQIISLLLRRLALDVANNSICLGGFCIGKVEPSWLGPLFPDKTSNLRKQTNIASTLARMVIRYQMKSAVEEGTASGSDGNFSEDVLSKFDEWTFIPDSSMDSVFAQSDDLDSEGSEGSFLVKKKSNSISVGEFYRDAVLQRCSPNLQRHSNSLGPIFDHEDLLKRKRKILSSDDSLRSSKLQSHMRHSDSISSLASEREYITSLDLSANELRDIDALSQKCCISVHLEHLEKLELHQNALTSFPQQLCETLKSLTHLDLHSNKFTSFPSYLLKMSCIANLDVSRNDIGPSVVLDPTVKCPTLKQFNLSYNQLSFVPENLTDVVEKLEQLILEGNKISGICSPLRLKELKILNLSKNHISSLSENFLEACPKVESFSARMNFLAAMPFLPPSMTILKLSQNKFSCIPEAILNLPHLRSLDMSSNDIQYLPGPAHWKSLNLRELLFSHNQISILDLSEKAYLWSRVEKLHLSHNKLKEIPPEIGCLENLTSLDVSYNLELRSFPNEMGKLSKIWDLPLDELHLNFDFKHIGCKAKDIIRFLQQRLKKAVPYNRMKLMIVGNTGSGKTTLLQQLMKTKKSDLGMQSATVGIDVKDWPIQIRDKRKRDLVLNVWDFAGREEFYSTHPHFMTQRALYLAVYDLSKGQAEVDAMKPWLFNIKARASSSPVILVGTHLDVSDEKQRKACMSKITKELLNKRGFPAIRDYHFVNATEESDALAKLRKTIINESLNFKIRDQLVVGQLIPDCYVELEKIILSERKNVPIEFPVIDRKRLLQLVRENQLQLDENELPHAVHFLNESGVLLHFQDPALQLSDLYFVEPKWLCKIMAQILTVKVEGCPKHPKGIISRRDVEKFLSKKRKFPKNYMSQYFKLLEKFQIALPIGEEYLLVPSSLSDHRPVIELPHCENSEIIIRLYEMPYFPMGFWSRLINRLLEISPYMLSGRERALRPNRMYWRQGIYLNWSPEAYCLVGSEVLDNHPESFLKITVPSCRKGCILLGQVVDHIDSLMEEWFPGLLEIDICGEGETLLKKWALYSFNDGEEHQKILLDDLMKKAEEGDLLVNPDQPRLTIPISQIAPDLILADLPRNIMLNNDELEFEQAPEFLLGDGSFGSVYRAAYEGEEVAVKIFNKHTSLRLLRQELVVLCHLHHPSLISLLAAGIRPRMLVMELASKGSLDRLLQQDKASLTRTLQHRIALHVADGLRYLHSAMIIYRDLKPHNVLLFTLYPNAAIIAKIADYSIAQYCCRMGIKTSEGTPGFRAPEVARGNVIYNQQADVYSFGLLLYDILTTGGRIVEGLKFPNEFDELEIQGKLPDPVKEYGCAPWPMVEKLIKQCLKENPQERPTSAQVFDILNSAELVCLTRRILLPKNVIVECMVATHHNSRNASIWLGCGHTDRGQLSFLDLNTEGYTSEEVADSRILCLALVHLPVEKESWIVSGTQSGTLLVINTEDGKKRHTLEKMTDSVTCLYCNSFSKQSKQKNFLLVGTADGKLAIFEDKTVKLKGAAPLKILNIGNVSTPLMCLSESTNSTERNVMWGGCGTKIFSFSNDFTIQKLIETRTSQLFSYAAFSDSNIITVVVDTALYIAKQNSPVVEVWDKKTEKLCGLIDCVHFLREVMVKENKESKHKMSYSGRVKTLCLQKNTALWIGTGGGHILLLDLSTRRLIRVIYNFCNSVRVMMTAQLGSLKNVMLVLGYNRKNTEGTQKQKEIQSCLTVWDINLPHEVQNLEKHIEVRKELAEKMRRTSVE
Description: Since the peptides were designed to block LRRK2 from interacting with FADD, they should not have any effect on the catalytic kinase activity of LRRK2. To determine whether the PPI-disrupting FARMS peptide alters LRRK2 kinase activity in cells, HEK293T cells were co-transfected with WT or G019S-LRRK2 together with Rab10. Cells over-expressing mutant LRRK2 and human WT RablO were treated with FARMS and the cell extracts were probed for multiple indices of LRRK2 kinase activity including phosphorylated Rab10 and pS1292-LRRK2.
Assessment of LRRK2 kinase function. To determine whether peptides targeting the LRRK2-FADD PPI could also alter kinase function, LRRK2 activity was assessed in a cellular setting, through the phosphorylation of an endogenous substrate (pT73-Rab10), as well as auto-phosphorylation (pS1292-LRRK2). […] Parallel cultures were transfected with only WT or R1441C-LRRK2; and endogenous levels of phosphorylated RablO were assessed. Following 72hr of total expression, the cells were washed in cold PBS and collected. Cell lysis was performed using the following buffer: 50mM Tris HCl, pH 7.5; 1mM EGTA; 0.27 M sucrose; 1% Triton X-100; supplemented with protease and phosphatase inhibitor cocktails, and cell extracts stored at -80°C until use. […] For quantification, the band intensities for phosphorylated Rab 10 or LRRK2 were normalized to total expression of the respective protein.

primary cortical neurons = experiment: Uptake of FAM-labeled peptide in primary cortical neurons (confocal imaging); assay type: cell-based, mouse; conditions: neurons expressing G2019S-LRRK2, 1 µM

Substance: FARM5: FAM-labeled hydrocarbon-stapled FADD Armadillo domain peptide; mass fits SEQ ID NO. 6 KVADLVQEVQQAXDLQXRSK ({FAM-PEG3′}-KVADLVQEVQQA[S5]DLQ[S5]RSK-NH2; staple 13-17; also: FAM label, optionally 5(6)FAM-PEG3 on N-terminal lysine) [FAM-labeled hydrocarbon-stapled FADD Armadillo domain peptide; 6 …XDLQXRSK]
- cellular uptake (permeation of cells) (HEK293T cells; 5 µM FAM-labeled peptide, 24 hr): clear diffuse fluorescent signal along with a few visible puncta was observed throughout cells
- dose-dependency of uptake of FAM-labeled peptide (HEK293T cells; 0.1 or 10 µM, 24hr): dose-dependent
- phosphorylation of over-expressed Rab10 (pT73) (G2019S-LRRK2): unexpected increase
- auto-phosphorylation of LRRK2 at Ser1292 (pS1292-LRRK2) (G2019S-LRRK2; listed as FARMS): any loss in phosphorylation of pS1292-LRRK2 or RablO could be detected; also recorded: un-affected
- fluorescent signal from the FAM peptide tag in neurons (primary cortical neurons): diffusely distributed throughout most neurons
